Patent publication US20240200091A1, “USE OF PROTOPORPHYRINOGEN OXIDASE” (BEIJING DABEINONG BIOTECHNOLOGY CO., LTD., priority 2021, published 2024)

Assays:
Format in all cases: in vivo
Details in all cases: 7 DAT, number of plants of 24 per genotype, grades
[1] = system: Arabidopsis thaliana T1 plants; experiment: oxyfluorfen tolerance of transgenic Arabidopsis thaliana T1 plants (spray, grade of pesticide damage)
In short: (§1)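 Read-out: injury grade at 7 DAT from injured vs total leaf area (0 = as water-sprayed; 1 = <10%; 3 = 100%); grades 0–1 were rated highly resistant. Plants were 18-day-old glufosinate-selected PPO-transgenic T1 lines plus controls, n = 24 per genotype. Doses: saflufenacil 25/100, sulfentrazone 450/900, flumioxazin 60/240, oxyfluorfen 180/720 g ai/ha.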

[2] = system: Arabidopsis thaliana T1 plants; experiment: saflufenacil tolerance of transgenic Arabidopsis thaliana T1 plants (spray, grade of pesticide damage)
In short: as §1

[3] = system: Arabidopsis thaliana T1 plants; experiment: flumioxazin tolerance of transgenic Arabidopsis thaliana T1 plants (spray, grade of pesticide damage)
In short: as §1

[4] = system: Arabidopsis thaliana T1 plants; experiment: sulfentrazone tolerance of transgenic Arabidopsis thaliana T1 plants (spray, grade of pesticide damage)
In short: as §1

B1: PPO10A: nucleotide sequence encoding microbial protoporphyrinogen oxidase PPO10 (SEQ ID NO:10), Arabidopsis thaliana/soybean common codon usage bias (nucleic acid)
DNA: ATGAAAGCTCTCTTTCTGTACTCGTCTCAAGAAGGACAGACAAGGAAGATTATAGAGAGAATCGCCCAGCAAATGCCGGAGTATGATTGTGATATTCAAGATCTTCATCAAGTAAGCGACATTGCATTAGCTGATTATGACAAGATCCTAATAGGGGCCAGTATCCGATATGGAAGATTGAATGATAAACTATATCAATTTATTCAGAGATATCTTCCCGATCTCCGCTCCAACAAAGCAGCTTTCTTCTGCGTCAATCTTACGGCGAGAAAGGAAGAACAAGGAAAAGACACCCCAGAAGGTTCTGTTTACATCCAGACTTTCTTGAAGAAATCACCATGGCAACCTGAGAGGATTGCAGTGTTTGCTGGTGCTCTTTACTATCCTCGTTACAGATGGTTTGATAAGATGATGATTCGGTTAATAATGACTTTGACCGGCGGTGAAACTGATACATCAAAAGAAGTTGAGTACACAAATTGGAACAAGGTTTCTCAGTTTGCGGAGCAGTTCCGTAACTGGTGA
modifications: The nucleotide sequence of PPO10A
B1 was tested, and the “The grade of pesticide damage/plant: grade 0” value ([1]; oxyfluorfen 180 g ai/ha (1×)) was 24 plant, the “The grade of pesticide damage/plant: grade 1” value ([1]; oxyfluorfen 180 g ai/ha (1×)) was 0 plant and the “The grade of pesticide damage/plant: grade 2” value ([1]; oxyfluorfen 180 g ai/ha (1×)) was 0 plant. For the same molecule, the “The grade of pesticide damage/plant: grade 3” value ([1]; oxyfluorfen 180 g ai/ha (1×)) was 0 plant, the “The grade of pesticide damage/plant: grade 0” value ([1]; oxyfluorfen 720 g ai/ha (4×)) was 20 plant and the “The grade of pesticide damage/plant: grade 1” value ([1]; oxyfluorfen 720 g ai/ha (4×)) was 4 plant. The “The grade of pesticide damage/plant: grade 2” value ([1]; oxyfluorfen 720 g ai/ha (4×)) was 0 plant, the “The grade of pesticide damage/plant: grade 3” value ([1]; oxyfluorfen 720 g ai/ha (4×)) was 0 plant and the “The grade of pesticide damage/plant: grade 0” value ([2]; saflufenacil 25 g ai/ha (1×)) was 24 plant. The “The grade of pesticide damage/plant: grade 1” value ([2]; saflufenacil 25 g ai/ha (1×)) was 0 plant, the “The grade of pesticide damage/plant: grade 2” value ([2]; saflufenacil 25 g ai/ha (1×)) was 0 plant and the “The grade of pesticide damage/plant: grade 3” value ([2]; saflufenacil 25 g ai/ha (1×)) was 0 plant. For the same molecule, the “The grade of pesticide damage/plant: grade 0” value ([2]; saflufenacil 100 g ai/ha (4×)) was 0 plant, the “The grade of pesticide damage/plant: grade 1” value ([2]; saflufenacil 100 g ai/ha (4×)) was 24 plant and the “The grade of pesticide damage/plant: grade 2” value ([2]; saflufenacil 100 g ai/ha (4×)) was 0 plant. For the same molecule, the “The grade of pesticide damage/plant: grade 3” value ([2]; saflufenacil 100 g ai/ha (4×)) was 0 plant, the “The grade of pesticide damage/plant: grade 0” value ([3]; flumioxazin 60 g ai/ha (1×)) was 24 plant and the “The grade of pesticide damage/plant: grade 1” value ([3]; flumioxazin 60 g ai/ha (1×)) was 0 plant. For the same molecule, the “The grade of pesticide damage/plant: grade 2” value ([3]; flumioxazin 60 g ai/ha (1×)) was 0 plant, the “The grade of pesticide damage/plant: grade 3” value ([3]; flumioxazin 60 g ai/ha (1×)) was 0 plant and the “The grade of pesticide damage/plant: grade 0” value ([3]; flumioxazin 240 g ai/ha (4×)) was 24 plant. The “The grade of pesticide damage/plant: grade 1” value ([3]; flumioxazin 240 g ai/ha (4×)) was 0 plant, the “The grade of pesticide damage/plant: grade 2” value ([3]; flumioxazin 240 g ai/ha (4×)) was 0 plant and the “The grade of pesticide damage/plant: grade 3” value ([3]; flumioxazin 240 g ai/ha (4×)) was 0 plant. The “The grade of pesticide: grade 0” value ([4]; sulfentrazone 450 g ai/ha (1×)) was 24, the “The grade of pesticide: grade 1” value ([4]; sulfentrazone 450 g ai/ha (1×)) was 0 and the “The grade of pesticide: grade 2” value ([4]; sulfentrazone 450 g ai/ha (1×)) was 0. For the same molecule, the “The grade of pesticide: grade 3” value ([4]; sulfentrazone 450 g ai/ha (1×)) was 0, the “The grade of pesticide: grade 0” value ([4]; sulfentrazone 900 g ai/ha (2×)) was 20 and the “The grade of pesticide: grade 1” value ([4]; sulfentrazone 900 g ai/ha (2×)) was 4. For the same molecule, the “The grade of pesticide: grade 2” value ([4]; sulfentrazone 900 g ai/ha (2×)) was 0 and the “The grade of pesticide: grade 3” value ([4]; sulfentrazone 900 g ai/ha (2×)) was 0.

B2: PPO11A: nucleotide sequence encoding microbial protoporphyrinogen oxidase PPO11 (SEQ ID NO:11), Arabidopsis thaliana/soybean common codon usage bias (nucleic acid)
DNA: ATGCAAAAAGCTCTTTTCCTCTACAGTTCAAGAGAAGGACAAACAAAGAAAATACTCAACTACATCAAGGAAGAACTATCAGAGTTTGATTGTGAGCTTGCTGATCTTCATCAGATTGAAGATATTGATTTAGCCTTGTATGATCGAGTATTAATAGGCGCAAGCATCCGGTATGGTCACTTGAACAAAAAGCTTTATCAGTTTATTGAGAAGCATGCTGAGCAACTTGCGCTGGCAAAAGCAGCTTTCTTCTGCGTGAATCTCACTGCAAGGAAAGAGGCTCAAGGAAAAGATACTCCGGAAGGTTCTGTTTACATAAAGACGTTTCTGTCCAAGTCTGCTTGGCAACCAAAGTTGATTGGAGTTTTTGCTGGTGCCCTATACTATCCTCGTTACCATTTCTTTGACAAAGTGATGATTAGATTCATCATGTCTTTAACCGGGGGAGAAACTGACACATCAAAAGAAGTTGAGTATACAAATTGGCAGAAAGTCTCGTTGTTTAGTGACAATTTCAAGAAGATGTGA
modifications: The nucleotide sequence of PPO11A
With B2 the “The grade of pesticide damage/plant: grade 0” value ([1]; oxyfluorfen 180 g ai/ha (1×)) was 24 plant, the “The grade of pesticide damage/plant: grade 1” value ([1]; oxyfluorfen 180 g ai/ha (1×)) was 0 plant and the “The grade of pesticide damage/plant: grade 2” value ([1]; oxyfluorfen 180 g ai/ha (1×)) was 0 plant. The “The grade of pesticide damage/plant: grade 3” value ([1]; oxyfluorfen 180 g ai/ha (1×)) was 0 plant, the “The grade of pesticide damage/plant: grade 0” value ([1]; oxyfluorfen 720 g ai/ha (4×)) was 21 plant and the “The grade of pesticide damage/plant: grade 1” value ([1]; oxyfluorfen 720 g ai/ha (4×)) was 3 plant. The “The grade of pesticide damage/plant: grade 2” value ([1]; oxyfluorfen 720 g ai/ha (4×)) was 0 plant, the “The grade of pesticide damage/plant: grade 3” value ([1]; oxyfluorfen 720 g ai/ha (4×)) was 0 plant and the “The grade of pesticide damage/plant: grade 0” value ([2]; saflufenacil 25 g ai/ha (1×)) was 24 plant. The “The grade of pesticide damage/plant: grade 1” value ([2]; saflufenacil 25 g ai/ha (1×)) was 0 plant, the “The grade of pesticide damage/plant: grade 2” value ([2]; saflufenacil 25 g ai/ha (1×)) was 0 plant and the “The grade of pesticide damage/plant: grade 3” value ([2]; saflufenacil 25 g ai/ha (1×)) was 0 plant. For the same molecule, the “The grade of pesticide damage/plant: grade 0” value ([2]; saflufenacil 100 g ai/ha (4×)) was 0 plant, the “The grade of pesticide damage/plant: grade 1” value ([2]; saflufenacil 100 g ai/ha (4×)) was 24 plant and the “The grade of pesticide damage/plant: grade 2” value ([2]; saflufenacil 100 g ai/ha (4×)) was 0 plant. The “The grade of pesticide damage/plant: grade 3” value ([2]; saflufenacil 100 g ai/ha (4×)) was 0 plant, the “The grade of pesticide damage/plant: grade 0” value ([3]; flumioxazin 60 g ai/ha (1×)) was 24 plant and the “The grade of pesticide damage/plant: grade 1” value ([3]; flumioxazin 60 g ai/ha (1×)) was 0 plant. The “The grade of pesticide damage/plant: grade 2” value ([3]; flumioxazin 60 g ai/ha (1×)) was 0 plant, the “The grade of pesticide damage/plant: grade 3” value ([3]; flumioxazin 60 g ai/ha (1×)) was 0 plant and the “The grade of pesticide damage/plant: grade 0” value ([3]; flumioxazin 240 g ai/ha (4×)) was 20 plant. The “The grade of pesticide damage/plant: grade 1” value ([3]; flumioxazin 240 g ai/ha (4×)) was 4 plant, the “The grade of pesticide damage/plant: grade 2” value ([3]; flumioxazin 240 g ai/ha (4×)) was 0 plant and the “The grade of pesticide damage/plant: grade 3” value ([3]; flumioxazin 240 g ai/ha (4×)) was 0 plant. For the same molecule, the “The grade of pesticide: grade 0” value ([4]; sulfentrazone 450 g ai/ha (1×)) was 24, the “The grade of pesticide: grade 1” value ([4]; sulfentrazone 450 g ai/ha (1×)) was 0 and the “The grade of pesticide: grade 2” value ([4]; sulfentrazone 450 g ai/ha (1×)) was 0. The “The grade of pesticide: grade 3” value ([4]; sulfentrazone 450 g ai/ha (1×)) was 0, the “The grade of pesticide: grade 0” value ([4]; sulfentrazone 900 g ai/ha (2×)) was 19 and the “The grade of pesticide: grade 1” value ([4]; sulfentrazone 900 g ai/ha (2×)) was 5. The “The grade of pesticide: grade 2” value ([4]; sulfentrazone 900 g ai/ha (2×)) was 0 and the “The grade of pesticide: grade 3” value ([4]; sulfentrazone 900 g ai/ha (2×)) was 0.
